assay: soluble on expression in E. coli; label from the status in PepcDB or PDB records

Sequence	soluble on expression in E. coli
MDDDDTFTCRIQYINDADPFATTSSSYLEPMRPVTFKFRLHECISDQLQDVIRTLRAPHKAGDSSLQVYRGLEGGGGELHTYLDNDMTLTDQQEELDILKADTRRCSLVLRTQTSLRVKTIIDKLLNCSGRDQRRALFSLKQIFQDDQDLVHEFVQNQGLDCMIRLGRTADQNHQNYILRALGQLMLYVDGMNGIIAHNGTIQWLYELLDSPFRLVVKTALKLLLVFIEYNDNNALLVLTAIQTVDKSKGQADWSGLMKVLTEKDSPDAETLVYGMTVVNKALHGIPDRVVILEPLHEFHPQFPQQFLHGNHQSGRIFNRLHLLQLITTISGLFAAKIFRRRFSWFRKIKRTRFRKKPTRVKVKAPPPSFPTLFSPTESKTMDFSEVAPQEPEPEKVAPPPPRAKIEDTGSGNSFADMLQKRAARSAEANRGTFEKKESEAEMQWKKAAENLEKRPLIINDLDFSQFHGVEYQQDPLQLARMAKMKEMAENGMRGGPVGVGVPPPPPPPSAIPLPPRLQGGIPPPPPLGIIPPPPPPGNLLMNGINRGDISPAANKGVLKLHWKPATVEQPDGIPSLKQKGSFWNTVDGAVPTFDAKKIVQLFETKKEKEAPVKKVAETKTQTLSVLPLKRSQAINIGLTKLPPINVIPAAIMKFDSLVLNKDGIEKILKTMMPSPKEIEEIEIKAAENPEMTLGNAEQLLLKLSQIPCLLERLRLWLFTLDYKNSEKDIAEPLMDMQLAMKEMEESRTFKVAMGMLLAIGNSLSGTDIKGFYLDYLTKASEVKDPVYKHTLTYHLAEYMVEHFSEGTDLYSEFGAVARSARVDYKELLDNLIRLEKDCKSSWECLATINVAQRIHQLKAIYTVTKNRWHSFLLYFGYSVDEIPNQTPNDVFKMVTEFSLEYRTTRDKILQQRKRLAEKRERNKTRGKIWALEGSSAEGGAGDAAPLRRRNHGPGTVAPVQNSQQRHDDMSKMLASMADDNNSLRRRPAGSNGVNGRNFGGSVKDLVDTESPEDEILNGLVKAATLQTDPRDQRRRARQFNRKSLRRTRTLKMVDGQLETNY	not soluble
MDDLEGKKCIGCQKPAKLRCPTCIKMSLPDAYFCDQSCFKAFWPIHKFSHSDVNGPYNPWPCYSFTGSLRPGRVTDRRPVPDHIPRPDYALHPQGVSLEERQSKSERVIKVLTDEEKEGLKVACKLGRECLNEAAKACGPGVTTEEIDRVVHEAAIERDCYPSPLGYYKFPKSCCTSVNEVICHGIPDMRKLENGDLCNVDVTVYHRGFHGDLNETFLVGDKVDEESRKLVKVTFECLQQAIAIVKPGVKFREIGNVIQKHANANGFSVVKGYCGHGIHRLFHTAPNVPHYAKNNATGVMKAGNSFTIEPMINAGTYHDDKWPDDWTAVTRDGRRSAQFEQTLLVTDTGCEILTKRDGNRPWFMDQIEQSY	soluble
MDDLQADDIKTSDENSAMVLLVDDQAMIGEAVRRGLAGHESIDFHFCADPHQAIAQAVQIKPTVILQDLVMPGLDGLTLVREYRSNPLTRDIPIIVLSTKEDPLIKSAAFAAGANDYLVKLPDNIELVARIRYHSRSYMTLLQRDEAYRALRVSQQQLLDTNLVLQRLMNSDGLTGLSNRRHFDEYLELEWRRATRDQAQLSLLMIDVDYFKAYNDNFGHLEGDEALRQVAKAIRNSCSRPSDLPARYGGEEFAMVLPNTSPGGARLLAEKLRQSVAGMNIPHIAPVPGSSLTVSIGVATVTPQVGQHSRQLILDADKGLYLAKNNGRNQVAAG	soluble
MDDLRIEYDAPNDVYFPGQAVTGKVIIQNREWIKARFLKICIHGGAHTHWSESRSTYRTNTRGERERFTENVNYNATINYLTGESIAWQSRDGTDRLPAGTNVFPFAFNLPINCAPSFEGCHGHIRYDVHVELDRPWKFNKKSRKCFSVIPVFDLNITPTAINPMVNTASKNTGLILKKGLVTITVNLPKRGYVAGEIMPITVNIDNGSKVAVSEVSAKMTQLSHFHASHGNMIGVTAHTHNRNDEKLVAESRRVADVPAKSRGQMVLSMKIPAIVPSFNCPIIAVDYCLTVKVSTQQIFGGGLKCEFPLIIGTIPIRQMNQAAPGAMPTMPSVSAPPYPVVAGASASQAVYPTAPSAPPASPGGEAPPSYEESVHGAGKVEDAEAFAPRYPVYNNLPQQQNSQLPPEYAPPLPAKSGF	not soluble
MDDNNSEFKHLFPIAVEVTEGKTYVWCGCGKSKTQPFCDKENCGDKAVSFIAELTEDVYFCNCKQTKNPPFCDGSHAKILLEVVKKKAKQMNRKGSLKLEHHHHHH	not soluble
MDDRRPQLTEEQLLFRIALTHVKGVGSVLARQLLSAMGSPEAIFSDRKELVQRLPKAPRRLLDAIFSPSVMEEARRKLDQALKAGLNMYFITDDNYPYRLKECVDAPILLYSKGNVDLSPRRVLSIVGTRNITAYGRTATERIVSGLAETIPDLLIVSGLAYGVDVAAHKAALDNGLPTVAVLAHGLDRIYPSGHRSIAMEMLRNGGLLTDYPMGTEPERFNFVGRNRIVAGLSDATLVIESAEKGGSLITAGLAFGYNREVLALPGRATDSRSAGCNALIRDQKAALVSSAQDVLTLLDWSSTIDAKPQTLNFRPDSWPDTPVAECLLRAGTASVDELTRATGLPINDVSAQLFDLELDGLVQSQPGGIYSVI	not soluble
MDDSSEEANQFEPPPAIRKSTRAVNNLSPHQKEVRCQCGTNNTDNRLIKCVECEKWQHAICMSVMPLDIIMTYKCEMCEPRLLMVSRSQARAYQGVEPEPREVRKKGRNQSVNLEEFLEFLSEASENISRPLALTTLFEDYKEHINYPQSVRILRKQLESNLLETISMSPNYYADRKAQMLFAMGLRVKGEFLERLERNAVVEVDGYHRITFYKSKNLEFRGKHRVGRFPLVNRRKSAESTSQQHGNSGEEDDDDIFIDLVVPVTGNSRWNQFPVKQEIPDEQSFGSASTLPNAEIEPNLQYSLSDTMTTGSASTWNMAATPPSEMRGIMMESMNGLHALQSASYPPYQEMQEMLCVQHTMMKSMHEIIKTQSDFYREMFKTRAIAGAPPAPATTSLRAFLHFLKGYVDYLESEQLVDCSRLTQQHLETCRAADKLISMEKLLTGLAVATTIAEAHLSDVSAIINGASAMEFYKFIEIYASNQSNSAFSGLCTDLKQKIQALVNMDKKIPFKELSRAFRTAISLVSQ	not soluble
MDEQISKSQKKRDAHYLQDIGIKFIDLSASKLDSLPLPDNLRQAIVDARSIKSHGAKRRQAQLIGKLMRAADFEAILAAYEKILEEESSVTASFHEIELWRDRLLQDGKDALTEFIDAYQPEDVQQLRQLIKKALDDQMKEKNTGAAKALFRYLRSLIK	not soluble
MDERIQALRKEVDRVNREILRLLSERGRLVQEIGRLQTELGLPHYDPKREEEMLAYLTAENPGPFPDETIRKLFKEIFKASLDLEERQDQKKFLYSKRHKPEPTRVRVKDVVFGEKPLLIAGPCSIESEEQIMATARFLAARGVRVLRGGAFKPRTSPYGFQGLGVEGLKLGRKAADAFGMVFVTEVMDTRDVEVVAEYADILQIGARNMQNFALLKEVGKARRPVLLKRGLSATMEEWFYAAEYILAQGNEQVILAERGIRTFERWTRNTLDLSAVALAKQETHLPVVVDVTHAAGRTDLLAPLARAALAVGADGVHVEVHPNPKVALSDNQQQMDFAQFDRFLEAIRDLLQAP	soluble
MDERRKRKAKDQLSPYSNPDEENDRHNTAIEPSPSASRKRAKARVGDLGTIADSGPLKGVLSSVNILKPRIRSDRISGLNRCFVNAVQKVVEKESNKSLLYLFRQYEKYYEELNEASD	not soluble
MDFKQRHTWLKIASCKSISAKKRASIWQKLTEFDQYEMTTQTFAESFFPVDKLAQILMELETAEACFFDDVTLIWILDDAYPALLREIYEAPPILFCKGNIDLLQQQAIAIVGTRQMSEYGRKACMKIASELAENKLTIVSGMAIGIDSTAHRATLNKQGATIAVLGSGVNKVYPKKNELLAKEIVKEGLLLSEYLPDEEAKRWHFPERNRIISGLAIGTVIIEAAERSGSLITADIALEQNRQVFAVPGNIFIDTWQGTNYLIQEGAKLVMNSNNIIEEFIQIKP	not soluble
MDFSCGAASIATLLNNFYGRHYSEAEILDKMDKTQMRASFDDMQRIMPELGFEAQGYALPFEQLVQLKIPVIVYLKYRKNNHFSVLNGINGETVLLADPSLGHVSMSKSQFLSAWKTRDGEMEGKILAIVPKNTDFVRNQMFFNKNPVRQTRFTVEQIQMRQKR	not soluble
MDFYDTDELRDFMALVEKTNDIKKIALFRILAFTGIRKGELLALEWKDYRKSTLDINKAISHSPVGYEILPPKANSNRLLSLDEKTCKILDELHQTYPESTRIFESENGGMLSPSKPRKWLLEITKEKEIEPIRIHAFRHTHASLLFESGMSLKQVQYRLGHADLKTTMNIYTHITKLEHHHHHH	not soluble
MDGLFEFCQLSTGGSVAGAVKLNRQQTDMAVNWAGGLHHAKKYEASGFCYVNDIVLAILELLKYHQRVLYIDIDIHHGDGVEEAFYTTDRVMTVSFHKYGEYFPGTGDLRDIGAGKGKYYAVNFPMCDGIDDESYGQIFKPIISKVMEMYQPSAVVLQCGADSLSGDRLGCFNLTVKGHAKCVEVVKTFNLPLLMLGGGGYTIRNVARCWTYETAVALDCEIPNELPYNDYFEYFGPDFKLHISPSNMTNQNTPEYMEKIKQRLFENLRMLPHAPGVQMQAIPEDAVHEDSGDEDGEDPDKRISIRASDKRIACDEEFSDSEDEGEGGRRNVADHKKGAKKARIEEDKKETEDKKTDVKEEDKSKDNLEHHHHHH	soluble
MDGQTLHAWAKRFALELPFTEHCWPFGPQYDVFKVGGKIFMLFTEHHCRPVVNLKSDPQKSLVNQQIYPSIAPGYHMNKKHWISVYAGEDITVSLLNDLINDSWNLVVDGLPKREQLRLRPR	not soluble
MDIKAQLKQIQDKGLYRELQPIQSVEKQYIYINDQSYINFTSNDYLGIGQLEYQPQNFLDFIKTYSIHLSSSRLVSGNSVVYQQLEQAISEHFNFEDALIFNSGYDANLAVFNIFKNNNVVIFSDQQNHASIIDGIKLSGLSKVIYQHLNYDDLESHLAQDTHLDVQKVIVSDSVFSTNGTKADINRLVHLKQRYNAILIIDASHSLGLNLFEYHADIDIVTSSLSKAWGAHGGIIFSSKDIKDLIINKGRSLIYSSSLPSYHLYFIQVSLQHVIEDTYRREKLNALSEYFNHQFMELFPNQPLSNTPIKNIVCDSLASAQAQYDMLFEHGIFVSYLRYPTVSQPTLRISLSYFHDTDDIDRLFNVMKQYDEGDSYV	not soluble
MDIMNEKVKKIIEFMDKNSIDAVLIAKNPNVYYISGASPLAGGYILITGESATLYVPELEYEMAKEESNIPVEKFKKMDEFYKALEGIKSLGIESSLPYGFIEELKKKANIKEFKKVDDVIRDMRIIKSEKEIKIIEKACEIADKAVMAAIEEITEGKKEREVAAKVEYLMKMNGAEKPAFDTIIASGYRSALPHGVASDKRIERGDLVVIDLGALYQHYNSDITRTIVVGSPNEKQKEIYEIVLEAQKKAVESAKPGITAKELDSIARNIIAEYGYGEYFNHSLGHGVGLEVHEWPRVSQYDETVLREGMVITIEPGIYIPKIGGVRIEDTILITKNGSKRLTKTERELI	soluble
MDITNLIELETICLDLKAQTKDEALKELVEMLEAAGKLNSQSQFLADIWKREEIGNTGFDDGIAIPHAKSDAVAKPAVAVGISRNGIDYGAEDGELSDVFFMLASPDGDDHHHIEVLAQISTKIIEDGFVEKLKQAQSREEALEMLTDIQTQSNEFLPTSLEFASEPLSPWAQKLGRIKEH	not soluble
MDKIKVGLQYWIPQHALTRLVGKLASARAGSLTTAIIRWFIKQYNVNMDEALHSDPTHFKTFNEFFVRELKAGVRPIAEGEKVITHPADACVSQFGAIEYGKLIQAKGHTYSAQELLGGDAKLAEEFRDGDFATLYLSPRDYHRVHMPCDGTLRQMIYVPGDLFSVNPLTAENVPNLFARNERVVCIFDTEFGPMAQVLVGATIVGSIELVWAGTVTPPRGNTVYRWDYPANGNQAVVLKKGEEMGRFKLGSTVINLFAKQAIRFDDSMALGAPTRMGEPYAHQA	soluble
MDKIYIHDMEFYGYHGVFPEENKLGQRFKVDLTVELDLKRAGESDDLEHSVNYGELFELCRKVVEDRTYKLVESIAENIATDILKQYESISRCTIKVIKPDPPIPGHYRAVAVEITRERP	not soluble

From the DeepSol protein solubility set
